Laboratory results: patent US20190212347A1, “BIO-ANALYTICAL METHOD FOR INSULIN ANALOGUES” (BIOCON LIMITED, priority 2016, published 2019)

Key:
[1] = Pharmacokinetics study: IN-105 plasma levels by LC/MS/MS in euglycemic clamp study in patients with Type 1 diabetes; assay type: in vivo, human
Experimental: The method was considered validated successfully since it passed all the pre-determined criteria in the validation protocol. The validated method was subsequently used for measurement of IN-105 levels in a euglycemic clamp study carried out in patients with Type 1 diabetes. The method for the determination of IN-105 in human plasma has been validated successfully over the concentration range 0.200 ng/ml to 50.0 ng/mL.
Plasma concentration data for each patient and treatment was analysed by a non-compartmental method. The area under plasma level curve for AUC0-t was calculated by the trapezoidal rule. The primary pharmacokinetic parameters (mean±SD) were Cmax, AUClast, Tmax and PD parameters were Tmin, Cmin, AUClast. Ratios and 90% CIs of geometric means were calculated for PK and PD parameters from mixed effects model with fixed effects for sequence, period and treatment, and patients within sequence as a random effect for log transformed Cmax and AUC.
The average plasma concentration time profile of IN-105 obtained after administration of IN-105 tablets in volunteers is shown in FIGS. 13-14.

[2] = Extract stability at 10° C.; assay type: physicochemical; settings: extracts stored at 10° C. for approximately 85 hours
Experimental: (§1) Validation consisted of intra run precision and bias, inter-run precision and bias, dilution integrity, matrix related modification of ionisation, auto-injector carry over, stability in whole blood at room temperature and on ice, freeze thaw stability of plasma over 5 cycles, 24 h room temperature stability of plasma, frozen stability in plasma at −20 and −80° C. for 73 days, recovery and extract stability at 10° C.

[3] = Stability in human plasma (room temperature, freeze/thaw, frozen storage); assay type: in vitro ADME
Experimental: Assessment of sample stability on storage (storage stability) was carried according to table (8), Acceptance criterion was defined as a recovered concentration within ±15% of the nominal spiked concentration. All standards were used within its stability period.
as §1, with “[…],” for “frozen stability in plasma at −20 and −80° C. for 73 days,”

[4] = Stability of stock solution in acetic acid (2%) in methanol:water; assay type: physicochemical; settings: acetic acid (2%) in methanol:water (30:70 v/v)
Experimental: Two separate stock solutions were prepared by dissolving 2 mg of IN-105 and dissolving in 1 mL of 2% acetic acid containing methanol:water in the ratio of 30:70 v/v. Thus, the stock solution of 2000 μg/mL was prepared.
One was named “calibration stock” and other was named “quality control stock”. The stock solution was stored at −20° C. for 40 days.
In one embodiment nitrogen isotope labelled insulin having purity 96.3% and 96.1% respectively, was used as analytical standard and internal standard for further analysis. Glargine (3.64 mg/mL) of 100% purity was used as co-administered standard in the analytical procedure. The stability studies to understand storage stability and solution stability were carried out.
In addition to the experiments described above, selectivity of the method in plasma (K2EDTA/K3EDTA) from different sources, effect of lipaemia and haemolysis, selectivity and modification of ionisation of insulin in the presence of Glargine and stability of solutions of insulin or insulin analogues investigated.

[5] = room temperature, up to 24 hours

In the case of “IN-105: rapid acting insulin analogue for oral delivery; human insulin sequence conjugated with short chain alkyl-polyethylene glycol at ε-amino group of lysine B29”, the “mean plasma concentration as a function of time after dosing” value ([1]; 30 mg/kg dose, FIG. 15) is reported as “well-defined peak concentration and subsequent clearance is evident”, the “AUClast (AUCt) as function of dose: intercept” value ([1]; AUClast in ng · h/ml, linear regression against dose) is reported as −243.525 area units and the “AUClast (AUCt) as function of dose: slope” value ([1]; AUClast in ng · h/ml, linear regression against dose, oral tablets, T1D patients) is reported as 26.427 area units/mg. The “Cmax as function of dose: intercept” value ([1]; Cmax in ng/ml, linear regression against dose) was −2.421 concentration units, the “Cmax as function of dose: slope” value ([1]; Cmax in ng/ml, linear regression against dose, oral tablets, T1D patients) was 0.431 concentration units/mg and the “correlation of maximal plasma concentration and area under the PK curve with dose” value ([1]; p<0.05) was “linearly correlated significantly”. The extract stability [2] was “stable”, the “frozen stability in plasma at −20° C.” value ([3]; 244 days storage at −20° C.) was “stable” and the “frozen stability in plasma at −80° C.” value ([3]; 244 days storage at −80° C.) was “stable”. The “freeze/thaw stability in plasma” value ([3]; after five freeze/thaw cycles) was “stable” and the “stability in plasma stored at room temperature” value [3, 5] was “stable”.
For “[^15N] IN-105: IN-105 labelled with stable isotope 15N by fermentation in labelled medium; used as internal standard”, the “solution stability at room temperature” value [4, 5] was “stable” and the “solution stability at −20° C.” value ([4]; −20° C., up to 40 days) was “stable”.
